Laboratory results published in the DeepSol protein solubility set.

Test: soluble on expression in E. coli; label from the status in PepcDB or PDB records

Sequence | soluble on expression in E. coli
MGKKVVVIGAGPGGIMAAGKAAERGHNVTLFEKNDRIGKKILISGKGRCNITNNTDIEGLIENIPGNGNFLYSAFYTFSNHDLIEFFEQYGLKTKVERGGRVFPVSDDAKDVNNALLKFLNKAKVNLRLNSPVQEIKAKNNTVTGVVLKDGTEVPCDAVVLATGGASYPGTGSTGDGYVMAKKLGHTIVDLKPSLVPLLAEEEWVKELQGLSLKNVSITILSKAGKKIYTDFGEMLFTHFGVSGPIILSASRHILDYDYKNVKLVIDLKPALSEEKLDERILRDFEKYSRKQYKNSLDDLLPKKMIPVIVKLSGIEPEKFVNQIKKEERRALVRLLKNLTLNINGSRPIKEAIVTAGGVSTDEINPSTMESKLVKGLYFAGEIIDVDGYTGGFNLTIAFSTGYLAGVSC | soluble
MGKNKTAYVCQECGYKSVKWLGKCPSCGEWNTLVEEFEPQSFSLVKKEPSLVLPVTDWEKEEHERETTGFESLDNALGGGLVKGQVILIAGEPGIGKSTLLLQISDRVANGKKVLYVSGEESGTQIALRAKRLGINNENLLVYPEVNLEKILQTLEKEKPSLLVLDSVQTIFSERLESSAGSVSQVREVTYRITEFCKEKNVPAFIVGQITKEGSIAGPKVLEHIVDTVLQFEGERFNFYRIVKVIKNRFGSTGEIAVFKMTDKGLEEVPEPSAFFISEKANAPGSVVFPHTEGSKPVLLEVQALVIPALYTTPQRRTQGFDPNRLALILAVLEKEAKIFTRDQDVFVNVAGGMSVKEPAADLAVAMAVVSSKKEKEVPKDFVIFGEVGLSGEIRAVHFGDLRLKEAKRFGFKKALIPKSLEIEIDGMEIYPVSHIQEAIEVLF | soluble
MGKQLAKKITWAIENFSSLHSKKIYSDPFIVGGCKWRFLVYPKGNNVDYLFLYLEVADYESLSPEWRRHARYLLNVVNQNSVKRSKQNEEQKWFDVQSPRWGRLSMFPLNEINAKDSGFLVNGELKIVAEIEVLEVIGKLDVSEETSTIMESMDFNGFQLLPSQVDFVRHMFEKHPEIASEFRLKNPNLRAGYMSLLLSLIETLRQSPQELNKVDLAEGYVALRSITDAGFKVDWLEKKLVEISEKKNKEEAGETRMQEINEELESLKQKCLDLEAQLEKEKAEVFAAKSPLSFNDVF | not soluble
MGKQRECLVIVEGYDPYVVKVSHDATSYSDYKTGRELPFTIIRMNGFSDSEGVYCCIASDKSMEDHTDEARALLKAYKVKPL | not soluble
MGKSDFLSPKAIANRIKSKGLQKLRWYCQMCQKQCRDENGFKCHCMSESHQRQLLLASENPQQFMDYFSEEFRNDFLELLRRRFGTKRVHNNIVYNEYISHREHIHMNATQWETLTDFTKWLGREGLCKVDETPKGWYIQYIDRDPETIRRQLELEKKKKQDLDDEEKTAKFIEEQVRRGLEGKEQETPVFTELS | soluble
MGKSIPVKTGLRGASAAVAGFIKSSKPIRPISSMDSSDKDSSSTTTTSETTRRFVPLSSVVSDCAKRWFKDTLEEAKAGNITMQVLLGQMYYSGYGVPKDARKVSSLFPPFQSLLFQVLGYNASDSDSESD | not soluble
MGKTSKYVTAAALCSTIVMGGLHASSVSYAATNPTVATLQSDAKLLNDFKKELKKQIDNREENITITYKTKDRNARNIMDELYGEFNKIVDADEYVKYNIASTRYSIKGLPGNYTFTLQVKYRESKEQTQYVKSQAKAIIGSIVKPGMDEHEKVKAIHDYVVKHVSYDTSYQAYTAYEALANRSAVCQGYTLLTYELLKEAGIQNRIVTGTGNGQAHSWNLVNIENKWYHLDTTFDDPVPDKAGRVTYSYFNMSDEQLSKDHDWDRSKYPAATTSYFNELTNKIKAGSSKTATYEQMLKETNLKYLSAQYGADNYSEFKEKLQQQFASKPEKVEVRYKQSMDGTMQDIKKVLNEINWPKGAKRVSYQVAPYSAMADYSLATITFTY | not soluble
MGLDKGKQQTAKKPGFNCKPFEFEISSTKFQIPNDKPLKYTLKCTADEKQDVIIQVHSVFFEIVGARRKHGVTSQEFHVLGKNEEMTFEIGLKDLTNVSYDNFEHAQLASAAGFITFTHYKSSRDDDSDASWGPNKNLLIVITDGMEEVGFWKKKLSVETETDEMKKVKEEFGVKLEGEKKYEEIDKMEMDRMRKEIGKNQSARDDGFAPIKDMHKKYLKEKYECVIS | soluble
MGLIKTIGRKPSVQWALSHLASGYLRLVRRTNRFTLEPADAYARLDAFGPFIAAMWHGQHIMISFMSRPQDRVATIISRSPDGNINTMALTRMGVRVMRASGARGRAVKDARAKGGAEGLRAMVKALKGGETVAFSADVPKVSRVCDAGIILLARFSGAPIVPVAVVTSRHIRFNSWDRACLGLPFGRGAMVFGEATFVPREVTPEEVDALRQRVQDELNRVHDRAYTLVGLEHHHHHH | soluble
MGLIMAKLFQSWWIGKKYKIIVVGLDNAGKTTILYNYVTKDQVETKPTIGSNVEEVSYRNLDFVIWDIGGQESLRKSWSTYYVQTDVVIVVIDSSDTTRIPIMKEQLHNMLQHEDLARAHILVLANKQDLPGAMNPAEVSTQLGLQTLRGARKWQINGCCAVKGEGLPEALEWIANNL | not soluble
MGLLAHFLKGPHKKTTLLLTRAGPVENPRHVLYSHPGLPLSPKGRSALLALLPLLQGFPVAHVYAADSLAEAEAARLFAEALGVPYTLLPELRERAWGAWEGLSFPEVEARFPGAVAAWTADEAGFAPPGGESVREAWERGRRAVKALLGKHRGQAILVVGNCTLNRAALSLALPLPPEEGLRLEQDYARLSVVDFYGEEGVVKALNLAVDWGHDPARGPQGPPGAS | soluble
MGLRDRFSNYLFKKAEKRGYLDNVLGKSIRYSGVYVTDSNILQSSDVYELLQDISNQMVLADIVVEDEFGNEIKDDIALQILRNPNNYLTQSEFIKLMTNTYLLEGETFPILNGAQIHLASNVFTELDDNLVEHFNIGGHEIPPCMIRHVKNIGADHLRGKGILDLGRDTLEGVMSAEKTLTDKYKKGGLLTFLLNLDAHINPQNGAQSKLINAILDQLESIDEARSVKMIPLGKGYSIDTLKSPLDDEKTLAYLNVYKKDLGKFLGINVDTYTELIKEDIEKAMMYIHNKAVRPIMKNFEDHLSLLFYAQNSGKRIKFKINILDFVTYSNKTNIGYNLVRTAITSPDNVADMLGFPKQNTKESQAIYISNDVTEIGKKEATDGSLGGGEENEN | not soluble
MGLRNENGIVVYPLINGAYRVAASDNYTSNFGLEWNTFQKTQIDKFSGNTVSEERLFAQTNWQKNGLEGETILEVGSGAGRFSQIMLDHTKATLYSVDYSEAVEANYRNNGPHERFKLFQASIYELPFKQASFDRVICLGVLQHTPDFKASVKALVEMVKPGGELVIDFYPIRNVFTKVHGKYLLRPILKRVNHHRLMSLIRNNIDFLISIYTFNRRIGLGVFNRFVPICEIERTLPKGMTPEQLKEWIILDTFDMFSPEYDQPQRLSTVAKWVKEFGMADVDASWVTYHGLEHHHHHH | not soluble
MGLTAGIVGLPNVGKSTLFNAITQAGAESANYPFCTIDPNVGIVEVPDERLNKLTELVEPKKTVPTVFEFTDIAGIVKGASKGEGLGNKFLSHIRQVDAICQVVRCFEDENITHVSGKVDPIDDIETINLELILADLESVDKRIERVAKLARQKDKEAVYEHEILVRLKEAFEEGKPARTVEFTEEQMKIVKGLHLLTTKEMLYVANVSEDDVIDPSENKYVQMVKEFAANENSQVIVVCAKIESEIAELDEEEKKVFLEELGIEESGLDQLIRAAYDLLGLATYFTAGVQEVRAWTFKQGMKAPQCAGVIHTDFERGFIRAETVSYEDLMTNGSMTAAKEAGKVRLEGKEYIVKDGDVMHFRFNV | soluble
MGLVQTNDQQLFIGVDGGGSKCRATIYTADGTVLGTGVAGRANPLHGLAQTFESIEASAHQALLDAGMKATDSHLLVAGLGLAGVNVPRLYQDVVNWQHPFAAMYVTTDLHTACIGAHRGADGAVIITGTGSCGYAHVGDASLSIGGHGFALGDKGSGAWLGLKAAEHVLLALDGFATPTALTEMLLSHLGVKDALGIVEHLAGKSSSCYAQLARNVLDCANAGDQVAIAIVQEGADYISEMARKLFMLNPVRFSMIGGLAEPLQAWLGSDVVAKISETLAPPELGAMYYAQQQFNSATVLEHHHHHH | soluble
